# Numbering of substitutions follows the chain as printed. Names and notes keep the numbering of the source.
# T1: PUF4 RNA-binding domain (Saccharomyces cerevisiae, UniProt P25339 537-888)
# T1 sequence: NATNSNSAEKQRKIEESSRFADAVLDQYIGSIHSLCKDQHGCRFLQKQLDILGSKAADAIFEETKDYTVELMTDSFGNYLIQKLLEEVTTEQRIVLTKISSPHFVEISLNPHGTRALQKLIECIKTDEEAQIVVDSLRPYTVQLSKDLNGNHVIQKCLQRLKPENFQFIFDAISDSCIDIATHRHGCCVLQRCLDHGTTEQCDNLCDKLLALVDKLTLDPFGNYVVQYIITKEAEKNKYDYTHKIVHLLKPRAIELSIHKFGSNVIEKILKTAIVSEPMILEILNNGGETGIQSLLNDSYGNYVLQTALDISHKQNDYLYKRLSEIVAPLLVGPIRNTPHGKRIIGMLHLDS
# B1: Id_ii_S2_P5E.3_K5.2_C5.2_[C-2A]_[T-1A]_H5.2_A5.1_F5.1_T5.2_[T11C]_[A12C] (ssRNA)
# RNA: UUUGAUUAAUAUGAUAUCGUUCUUUCUAAUAUAUUAUUACCUUCUUUCUCGAUAUCAUAUUAAUCUUU
# B2: Id_ii_S2_P5E.3_K5.2_C5.2_[T-1A]_H5.2_A5.1_F5.1_T5.2_[T11C]_[A12C] (ssRNA)
# RNA: B1 RNA with A28C
# B3: Id_ii_S2_P5E.3_K5.2_C5.2_[T-1C]_H5.2_A5.1_F5.1_T5.2_[T11A] (ssRNA)
# RNA: B1 RNA with A28C, A29C, C40A, C41A
# B4: Id_ii_S2_P5E.3_K5.2_C5.2_[T-1C]_H5.2_A5.1_F5.1_T5.2_[T11C]_[A12C] (ssRNA)
# RNA: B1 RNA with A28C, A29C
# B5: Id_ii_S2_P5E.3_K5.2_C5.2_[C-2A]_H5.2_A5.1_F5.1_T5.2_[A12C] (ssRNA)
# RNA: B1 RNA with A29U, C40U
# B6: Id_ii_S2_P5E.3_K5.2_C5.2_[C-2A]_H5.2_A5.1_F5.1_T5.2_[A12T] (ssRNA)
# RNA: B1 RNA with A29U, C40U, C41U
# B7: Id_ii_S2_P5E.3_K5.2_C5.2_[C-2A]_H5.2_A5.1_F5.1_T5.2_[T11G]_[A12C] (ssRNA)
# RNA: B1 RNA with A29U, C40G
# B8: Id_ii_S2_P5E.3_K5.2_C5.2_[T-1C]_H5.2_A5.1_F5.1_T5.2_[T11C]_[A12T] (ssRNA)
# RNA: B1 RNA with A28C, A29C, C41U
# B9: Id_ii_S2_P5E.3_K5.2_C5.2_[T-1A]_H5.2_A5.1_F5.1_T5.2_[T11C] (ssRNA)
# RNA: B1 RNA with A28C, C41A
# B10: Id_ii_S2_P5E.3_K5.2_C5.2_H5.2_A5.1_F5.1_T5.2_[T11C]_[A12C] (ssRNA)
# RNA: B1 RNA with A28C, A29U
# B11: Id_ii_S2_P5E.3_K5.2_C5.2_H5.2_A5.1_F5.1_T5.2_[T11G]_[A12T] (ssRNA)
# RNA: B1 RNA with A28C, A29U, C40G, C41U
# B12: Id_ii_S2_P5E.3_K5.2_C5.2_[T-1A]_H5.2_A5.1_F5.1_T5.2_[T11C]_[A12G] (ssRNA)
# RNA: B1 RNA with A28C, C41G
# B13: Id_ii_S2_P5E.3_K5.2_C5.2_[T-1G]_H5.2_A5.1_F5.1_T5.2_[T11G]_[A12C] (ssRNA)
# RNA: B1 RNA with A28C, A29G, C40G
# B14: Id_ii_S2_P5E.3_K5.2_C5.2_H5.2_A5.1_F5.1_T5.2_[T11C]_[A12G] (ssRNA)
# RNA: B1 RNA with A28C, A29U, C41G
# B15: Id_ii_S2_P5E.3_K5.2_C5.2_[T-1G]_H5.2_A5.1_F5.1_T5.2_[T11A]_[A12C] (ssRNA)
# RNA: B1 RNA with A28C, A29G, C40A
# B16: Id_ii_S2_P5E.3_K5.2_C5.2_[T-1A]_H5.2_A5.1_F5.1_T5.2_[T11A]_[A12T] (ssRNA)
# RNA: B1 RNA with A28C, C40A, C41U
# B17: Id_ii_S2_P5E.3_K5.2_C5.2_H5.2_A5.1_F5.1_T5.2_[T11G]_[A12C] (ssRNA)
# RNA: B1 RNA with A28C, A29U, C40G
# B18: Id_ii_S2_P5E.3_K5.2_C5.2_[T-1A]_H5.2_A5.1_F5.1_T5.2_[T11A]_[A12C] (ssRNA)
# RNA: B1 RNA with A28C, C40A
# B19: Id_ii_S2_P5E.3_K5.2_C5.2_[T-1A]_H5.2_A5.1_F5.1_T5.2_[T11C]_[A12T] (ssRNA)
# RNA: B1 RNA with A28C, C41U
# B20: Id_ii_S2_P5E.3_K5.2_C5.2_[T-1C]_H5.2_A5.1_F5.1_T5.2_[T11A]_[A12G] (ssRNA)
# RNA: B1 RNA with A28C, A29C, C40A, C41G
# B21: Id_ii_S2_P5E.3_K5.2_C5.2_[C-2A]_[T-1A]_H5.2_A5.1_F5.1_T5.2_[T11C] (ssRNA)
# RNA: B1 RNA with C41A
# B22: Id_ii_S2_P5E.3_K5.2_C5.2_H5.2_A5.1_F5.1_T5.2_[T11C]_[A12T] (ssRNA)
# RNA: B1 RNA with A28C, A29U, C41U
# B23: Id_ii_S2_P5E.3_K5.2_C5.2_[T-1C]_H5.2_A5.1_F5.1_T5.2_[A12T] (ssRNA)
# RNA: B1 RNA with A28C, A29C, C40U, C41U
# B24: Id_ii_S2_P5E.3_K5.2_C5.2_[T-1C]_H5.2_A5.1_F5.1_T5.2_[T11A]_[A12T] (ssRNA)
# RNA: B1 RNA with A28C, A29C, C40A, C41U
# B25: Id_ii_S2_P5E.3_K5.2_C5.2_[T-1A]_H5.2_A5.1_F5.1_T5.2_[A12T] (ssRNA)
# RNA: B1 RNA with A28C, C40U, C41U
# B26: Id_ii_S2_P5E.3_K5.2_C5.2_[T-1G]_H5.2_A5.1_F5.1_T5.2_[T11G]_[A12T] (ssRNA)
# RNA: B1 RNA with A28C, A29G, C40G, C41U
# B27: Id_ii_S2_P5E.3_K5.2_C5.2_[T-1C]_H5.2_A5.1_F5.1_T5.2_[T11C]_[A12G] (ssRNA)
# RNA: B1 RNA with A28C, A29C, C41G
# B28: Id_ii_S2_P5E.3_K5.2_C5.2_[C-2A]_H5.2_A5.1_F5.1_T5.2_[T11C]_[A12G] (ssRNA)
# RNA: B1 RNA with A29U, C41G
# B29: Id_ii_S2_P5E.3_K5.2_C5.2_[C-2A]_H5.2_A5.1_F5.1_T5.2_[T11C] (ssRNA)
# RNA: B1 RNA with A29U, C41A
# B30: Id_ii_S2_P5E.3_K5.2_C5.2_[T-1C]_H5.2_A5.1_F5.1_T5.2_[T11A]_[A12C] (ssRNA)
# RNA: B1 RNA with A28C, A29C, C40A
# B31: Id_ii_S2_P5E.3_K5.2_C5.2_[T-1A]_H5.2_A5.1_F5.1_T5.2_[T11A]_[A12G] (ssRNA)
# RNA: B1 RNA with A28C, C40A, C41G
# B32: Id_ii_S2_P5E.3_K5.2_C5.2_[C-2A]_H5.2_A5.1_F5.1_T5.2_[T11C]_[A12T] (ssRNA)
# RNA: B1 RNA with A29U, C41U
# B33: Id_ii_S2_P5E.3_K5.2_C5.2_[T-1A]_H5.2_A5.1_F5.1_T5.2_[A12C] (ssRNA)
# RNA: B1 RNA with A28C, C40U
# B34: Id_ii_S2_P5E.3_K5.2_C5.2_[T-1A]_H5.2_A5.1_F5.1_T5.2_[T11A] (ssRNA)
# RNA: B1 RNA with A28C, C40A, C41A
# B35: Id_ii_S2_P5E.3_K5.2_C5.2_[T-1A]_H5.2_A5.1_F5.1_T5.2_[T11G]_[A12C] (ssRNA)
# RNA: B1 RNA with A28C, C40G
# B36: Id_ii_S2_P5E.3_K5.2_C5.2_[T-1G]_H5.2_A5.1_F5.1_T5.2_[A12C] (ssRNA)
# RNA: B1 RNA with A28C, A29G, C40U
# B37: Id_ii_S2_P5E.3_K5.2_C5.2_[T-1G]_H5.2_A5.1_F5.1_T5.2_[T11A]_[A12T] (ssRNA)
# RNA: B1 RNA with A28C, A29G, C40A, C41U
# B38: Id_ii_S2_P5E.3_K5.2_C5.2_[C-2A]_H5.2_A5.1_F5.1_T5.2_[T11C]_[A12C] (ssRNA)
# RNA: B1 RNA with A29U
# B39: Id_ii_S2_P5E.3_K5.2_C5.2_[T-1G]_H5.2_A5.1_F5.1_T5.2_[A12T] (ssRNA)
# RNA: B1 RNA with A28C, A29G, C40U, C41U
# Biological target: T1, PUF4 RNA-binding domain
# Assay: Mg; RNA-MaP; 20 mM Na-HEPES pH 7.4, 30 mM KOAc, 0.75 mM MgCl2, 0.1% Tween-20, 5% glycerol, 0.1 mg/mL BSA, 2 mM DTT; 25 C; 0.0125-409.6 nM protein
# Settings: tags: N-His6-TEV cleaved; C-SNAP kept, Cy3B-labelled; label: tethered on chip by stalled RNA polymerase
row,Binder,Kd [nM]
1,B1,504
2,B2,69.4
3,B3,151
4,B4,87.3
5,B5,122
6,B6,269
7,B7,762
8,B8,57.9
9,B9,166
10,B10,92.1
11,B11,462
12,B12,372
13,B13,28.1
14,B14,426
15,B15,15.5
16,B16,131
17,B17,127
18,B18,96.4
19,B19,90.7
20,B20,887
21,B21,672
22,B22,77.9
23,B23,79.4

row,Binder,Kd [nM]
1,B24,138
2,B25,223
3,B26,38.1
4,B27,392
5,B28,229
6,B29,207
7,B30,108
8,B31,1200
9,B32,97.6
10,B33,151
11,B34,246
12,B35,112
13,B36,28.4
14,B37,12.1
15,B38,142
16,B39,11.9
17,UCUCUUUGUAUUUCUAUCUCUU (ssRNA) [Ib_S1_P5E.1_K5.1_C5.1_H5.1_A5.1_[A7T]_F5.1_[T8C]_T5.1],6.46
18,UCUCUUUGUAUUCAUAUCUCUU (ssRNA) [Ib_S1_P5E.1_K5.1_C5.1_H5.1_A5.1_[A7C]_F5.1_[T8A]_T5.1],14
19,UCUCUUUGUACUAUGAUCUCUU (ssRNA) [Ib_S1_P5E.1_K5.1_C5.1_H5.1_A5.1_[T5C]_F5.1_[T9G]_T5.1],13.2
20,UCUCUUUGUAUUUAUAUCUCUU (ssRNA) [Ib_S1_P5E.1_K5.1_C5.1_H5.1_A5.1_[A7T]_F5.1_[T8A]_T5.1],5.27
21,UCUCUUUGUAUAUUUCUCUU (ssRNA) [Ic_S1_P3E.1_K3.1_C3.1_H3.1_A3.1_F3.1_[A8T]_T3.1],4.59
22,UCUCUUUGUCUUAUUAUCUCUU (ssRNA) [Ia_S1_P5E.1_K5.1_C5.1_H5.1_[A4C]_A5.1_F5.1_T5.1],38.3
